Laboratory results: EP4480965A1, “TRANSFERRIN RECEPTOR-BINDING MOLECULES, CONJUGATES THEREOF AND THEIR USES TO PREVENT OR TREAT CNS DISEASES” (Vect-Horus, priority 2023, dated 2024)
Where two headings read alike, the source gives them in different places.

Legend:
human TfR = target: T1, human TfR (Homo sapiens, UniProt P02786); assay: Flow cytometry apparent Kd (Kd app) on CHO cells expressing hTfR fused to EGFP; type: binding; settings: bioconjugates (siGFPst1, NODAGA, 68Ga), 2 µM to 30 pM, 1 hr at 4°C
T1 construct: expressed in transfected cells
Procedure: After one wash in PBS/BSA 2%, cells were incubated for 1 hr with an anti-6His tag antibody (mouse), washed twice with PBS/BSA 2%, and incubated for 45 min with an Alexa647-conjugated anti-mouse secondary antibody. […] No labeling of the CHO WT control cells was detected with all the tested VHHs (not shown).
After one wash in PBS/BSA 2%, cells were incubated for 1 hr with an anti-6His tag antibody (mouse), washed twice with PBS/BSA 2%, and incubated for 45 min with an Alexa647-conjugated anti-mouse secondary antibody. […] Fluorescence levels were assessed using an Attune NxT Flow Cytometer (Thermo Fisher Scientific). […] No labeling of the CHO WT control cells was detected with all the tested VHHs (not shown).
The binding properties of VHHs with affinity for the TfR from different species (i.e., human (h), mouse (m) and rhesus monkey (rh)) were tested using flow cytometry, and apparent affinities (Kd app) were determined. […] CHO cell lines expressing the hTfR, mTfR or rhTfR fused to EGFP were saturated with PBS/BSA 2% solution during 30 min to avoid nonspecific binding, followed by incubation with purified VHHs at increasing concentrations for 1 hr. After one wash in PBS/BSA 2%, cells were incubated for 1 hr with an anti-6His tag antibody (mouse), washed twice with PBS/BSA 2%, and incubated for 1 hr with an Alexa647-conjugated anti-mouse secondary antibody. After two last washes in PBS/BSA 2%, cells were fixed by incubation for 15 min with PBS/PFA 2%, washed once with PBS and finally resuspended in PBS. Fluorescence levels were assessed using an Attune NxT flow cytometer (Thermo Fisher Scientific).

GFP [1] = settings: for reduction of GFP protein levels: 120 hrs at 37°C
Procedure: Third, the ability of the VHH A, once conjugated to siGFPst1, to trigger hTfR-mediated endocytosis and subsequent delivery into the cytosol of target cells in pharmacological amounts was assessed. The VHH A-siGFPst1 or the control VHH Z-siGFPst1 bioconjugates were incubated on CHO-hTfR-GFP cells at 1 µM during 120 hrs at 37°C to allow free uptake, delivery to the cytosol and gene silencing to take place at the mRNA transcript and protein levels. […] Next, the VHH A-siGFPst1 bioconjugate was incubated on CHO-hTfR-GFP cells at concentrations ranging from 3 µM to 10 pM during 120 hrs.
Fifth, the TfR-mediated GFP-silencing effect of the VHH A-siGFPst1 bioconjugate was evaluated using a pulse-chase procedure. CHO-hTfR-GFP cells were exposed to VHH A-siGFPst1 at concentrations ranging from 300 nM to 1 pM during a short duration (6 hours), followed by chase in ligand-free medium up to a total duration of 120 hrs.
Finally, the ability of the VHH B to trigger hTfR-mediated endocytosis and subsequent gene silencing was evaluated by incubating the VHH B-siGFPst1 bioconjugate on CHO-hTfR-GFP cells at 30 nM during 120 hrs. […] To the best of our knowledge, receptor-mediated hepatocyte uptake through the asialoglycoprotein receptor (ASGPR) using triantennary GalNAc as a targeting ligand is the only ligand/receptor system able to trigger specific and efficient gene silencing at nanomolar concentrations. However, the use of this system for in vivo therapeutic applications with therapeutic nucleic acids is restricted to hepatic targets, since ASGPR is expressed in vivo exclusively in hepatocytes.

GFP [2] = test system: GFP
Procedure: Second, the intrinsic silencing activity of the VHH-siGFPst1 bioconjugate was assessed in living CHO cell lines stably expressing the TfR fused to EGFP (CHO-hTfR-EGFP cells) by transfection of the conjugate at 25 nM using Dharmafect 1 (Dharmacon) for direct delivery into the cytosol. The total cellular amount of GFP was quantified 72 hours post-transfection using flow cytometry. […] In another series of experiments, the VHH A-siGFPst1 conjugate was transfected on CHO-hTfR-EGFP cells at concentrations ranging from 10 nM to 1 pM and the total cellular amount of GFP was quantified 120 hours post-transfection using flow cytometry.

T1 sequence (P02786 whole entry, the tested form may be a part): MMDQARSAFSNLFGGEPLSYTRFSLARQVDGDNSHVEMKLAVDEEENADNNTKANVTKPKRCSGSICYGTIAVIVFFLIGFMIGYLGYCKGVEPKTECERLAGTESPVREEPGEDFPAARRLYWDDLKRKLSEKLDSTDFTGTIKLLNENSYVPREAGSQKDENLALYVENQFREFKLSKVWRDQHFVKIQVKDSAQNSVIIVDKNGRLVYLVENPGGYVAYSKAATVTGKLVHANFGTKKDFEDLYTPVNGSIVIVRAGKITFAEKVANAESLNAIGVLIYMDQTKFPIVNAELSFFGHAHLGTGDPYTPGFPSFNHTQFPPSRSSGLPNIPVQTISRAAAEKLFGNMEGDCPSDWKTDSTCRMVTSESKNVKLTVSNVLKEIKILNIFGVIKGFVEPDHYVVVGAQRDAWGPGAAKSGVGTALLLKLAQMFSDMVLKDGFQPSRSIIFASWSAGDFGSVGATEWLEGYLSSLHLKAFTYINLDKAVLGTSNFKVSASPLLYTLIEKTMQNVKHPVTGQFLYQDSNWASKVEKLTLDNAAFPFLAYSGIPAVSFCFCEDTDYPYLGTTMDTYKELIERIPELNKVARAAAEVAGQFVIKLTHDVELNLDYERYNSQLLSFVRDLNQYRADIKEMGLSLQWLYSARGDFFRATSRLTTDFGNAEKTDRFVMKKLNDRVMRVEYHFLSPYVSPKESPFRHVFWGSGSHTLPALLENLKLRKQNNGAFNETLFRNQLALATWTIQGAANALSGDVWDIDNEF

B1: VHH B-siGFPst1: siGFPst1 conjugated to VHH B (conjugate)
VHH: EVQLVESGGGVVQPGGSLRLSCAASGEIFSINFMRWYRQAPGKQREWVAGFTRDGSTNYPDSAKGRFTISRDNAKNTVYLQIDSLKPEDTAVYYCYMLDTWGQGTQVTVSSAAAEQKLISEEDLNGAAHHHHHHGS
Human TfR
  apparent hTfR-binding affinity (Kd app): low nanomolar range
GFP [1]; free uptake, 30 nM
  reduction of GFP protein levels: ca. -60%

B2: VHH A-siGFPst1: siGFPst1 conjugated to a tagged VHH A (conjugate)
VHH: EVQLVESGGGVVQPGGSLKLSCVASGTDFSINFIRWYRQAPGKQREFVAGFTATGNTNYADSMKGRFTISRDNTKNAVYLQIDSLKPEDTAVYYCYMLDKWGQGTQVTVSSAAAEQKLISEEDLNGAAHHHHHHGS
GFP [2]; read-out: IC50 (reduction of GFP protein levels), transfection 10 nM to 1 pM, 120 hours
  IC50: 0.0504 nM
GFP [2]; transfection 10 nM to 1 pM, 120 hours
  maximum silencing efficiency: -90.2%
GFP [2]; transfection at 25 nM, 72 hours post-transfection
  reduction of GFP protein levels: ca. 85%
Human TfR
  apparent hTfR-binding affinity (Kd app): low nanomolar range
GFP [1]; 30 nM with 100X excess of free VHH A, 120 hrs
  GFP protein levels, % of the control levels: 85%
GFP [1]; 30 nM with 100X excess of free VHH B, 120 hrs
  GFP protein levels, % of the control levels: 96%
GFP [1]; 30 nM with 100X excess of irrelevant VHH Z, 120 hrs
  competition of the silencing effect: no competition
GFP [1]; free uptake, 30 nM
  reduction of GFP protein levels: ca. 60%
GFP [1]; free uptake, 1 µM
  reduction of GFP protein levels: ca. -70%
GFP [1]; free uptake, continuous 120 hrs
  maximum silencing efficiency: -61.6 ± 2.9%

B3: VHH A-NODAGA: VHH A-azide reacted with NODAGA-BCN (conjugate)
VHH: EVQLVESGGGVVQPGGSLKLSCVASGTDFSINFIRWYRQAPGKQREFVAGFTATGNTNYADSMKGRFTISRDNTKNAVYLQIDSLKPEDTAVYYCYMLDKWGQGTQVTVSSAAAEQKLISEEDLNGAAHHHHHHGSAAAHHHHHHGGGLQR
Human TfR
  apparent hTfR-binding affinity (Kd app): low nanomolar range

B4: VHH A-68Ga: VHH A-NODAGA radiolabeled using 68Ga chloride (conjugate)
VHH: EVQLVESGGGVVQPGGSLKLSCVASGTDFSINFIRWYRQAPGKQREFVAGFTATGNTNYADSMKGRFTISRDNTKNAVYLQIDSLKPEDTAVYYCYMLDKWGQGTQVTVSSAAAEQKLISEEDLNGAAHHHHHHGSAAAHHHHHHGGGLQR
Human TfR
  apparent hTfR-binding affinity (Kd app): low nanomolar range
